Measured values: PMC12441119 (Cell Discovery, 2025)
Blank lines part the entries; values can stand above or below the binder they belong to.

B2: STK4 (residues 1–326) K59R (domain or fragment, human, UniProt Q13043 1-326, looked up)
chain: METVQLRNPPRRQLKKLDEDSLTKQPEEVFDVLEKLGEGSYGSVYKAIHKETGQIVAIRQVPVESDLQEIIKEISIMQQCDSPHVVKYYGSYFKNTDLWIVMEYCGAGSVSDIIRLRNKTLTEDEIATILQSTLKGLEYLHFMRKIHRDIKAGNILLNTEGHAKLADFGVAGQLTDTMAKRNTVIGTPFWMAPEVIQEIGYNCVADIWSLGITAIEMAEGKPPYADIHPMRAIFMIPTNPPPTFRKPELWSDNFTDFVKQCLVKSPEQRATATQLLQHPFVRSAKGVSILRDLINEAMDVKLKRQESQQREVDQDDEENSEEDEMD
notes: also called KD; source: E. coli BL21 (DE3), purified (Ni-NTA, SEC)

Experiments:
Details in all cases: both partners purified
[1] = biological target: B2; experiment: SEC; each protein alone and the mixture at matched concentrations on Superdex 200 Increase 10/300 GL or Superdex 75 Increase 10/300 GL; a forward shift or increase of the peak read qualitatively; fractions on SDS-PAGE (Fig. 1c: 20 μM HOIP RING2-LDD, 30 μM STK4 KD, Superdex 75 Increase)
[2] = biological target: T1, STK4 (residues 1–487) K59R (human, UniProt Q13043 1-487, K59R); experiment: ITC; MicroCal PEAQ-ITC, 25 °C; 20 mM Tris-HCl pH 7.5, 100 mM NaCl, 1 mM DTT; ~50 μM in the cell, ~500 μM in the syringe; one-site binding model
T1 construct: The tag could be cut by HRV 3C protease 'if desired'; also called kinase-dead full-length STK4; MST1; source: E. coli BL21 (DE3), purified (Ni-NTA, SEC)
T1 sequence (looked up): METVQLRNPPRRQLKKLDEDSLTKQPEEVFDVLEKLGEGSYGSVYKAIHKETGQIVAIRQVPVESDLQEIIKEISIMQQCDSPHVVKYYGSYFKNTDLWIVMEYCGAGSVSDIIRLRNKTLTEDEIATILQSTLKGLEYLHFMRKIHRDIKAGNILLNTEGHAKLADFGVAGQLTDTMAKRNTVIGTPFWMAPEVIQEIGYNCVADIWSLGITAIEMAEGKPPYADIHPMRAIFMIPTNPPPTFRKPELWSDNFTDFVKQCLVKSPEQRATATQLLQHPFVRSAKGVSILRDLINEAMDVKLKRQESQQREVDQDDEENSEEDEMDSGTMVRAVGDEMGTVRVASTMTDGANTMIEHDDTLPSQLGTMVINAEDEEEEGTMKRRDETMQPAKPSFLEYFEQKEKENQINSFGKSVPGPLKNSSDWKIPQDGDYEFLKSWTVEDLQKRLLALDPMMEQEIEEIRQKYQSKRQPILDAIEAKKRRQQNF

[3] = biological target: T2, STK4 (residues 11–326) K59R (human, UniProt Q13043 11-326, K59R); experiment: as above
T2 construct: Monomer-dimer equilibrium in solution; dimer in the crystal; also called STK4 KD; source: E. coli BL21 (DE3), purified (Ni-NTA, SEC)
T2 sequence (looked up): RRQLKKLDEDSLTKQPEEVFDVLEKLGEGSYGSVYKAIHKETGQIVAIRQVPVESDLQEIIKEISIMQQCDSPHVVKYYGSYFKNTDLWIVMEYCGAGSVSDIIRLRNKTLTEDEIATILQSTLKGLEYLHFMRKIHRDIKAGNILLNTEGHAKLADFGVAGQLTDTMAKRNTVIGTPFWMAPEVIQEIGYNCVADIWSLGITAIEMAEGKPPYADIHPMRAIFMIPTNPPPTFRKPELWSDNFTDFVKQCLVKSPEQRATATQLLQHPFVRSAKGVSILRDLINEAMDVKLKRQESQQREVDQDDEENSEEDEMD

HOIP (residues 697–1072) = biological target: T3, HOIP (residues 697–1072) (UniProt Q96EP0 697-1072); experiment: SEC; each protein alone and the mixture at matched concentrations on Superdex 200 Increase 10/300 GL or Superdex 75 Increase 10/300 GL; a forward shift or increase of the peak read qualitatively; fractions on SDS-PAGE (Fig. 1c: 20 μM HOIP RING2-LDD, 30 μM STK4 KD, Superdex 75 Increase)
T3 construct: also called RING1-IBR-RING2-LDD; HOIP RBR-LDD; source: E. coli BL21 (DE3), purified (glutathione resin, SEC)
T3 sequence (looked up): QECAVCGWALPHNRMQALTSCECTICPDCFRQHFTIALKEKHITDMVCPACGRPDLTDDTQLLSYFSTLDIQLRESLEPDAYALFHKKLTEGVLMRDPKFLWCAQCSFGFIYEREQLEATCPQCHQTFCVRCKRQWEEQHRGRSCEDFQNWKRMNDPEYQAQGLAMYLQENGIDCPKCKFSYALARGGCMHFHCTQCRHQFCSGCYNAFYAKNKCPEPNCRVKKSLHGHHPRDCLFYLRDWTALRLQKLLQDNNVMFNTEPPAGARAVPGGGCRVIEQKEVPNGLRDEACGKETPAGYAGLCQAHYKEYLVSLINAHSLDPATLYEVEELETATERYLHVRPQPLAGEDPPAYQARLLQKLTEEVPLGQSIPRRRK

M1-8Ub = biological target: T4, M1-8Ub (UniProt P0CG48 1-76; P0CG48 1-76; P0CG48 1-76; P0CG48 1-76; P0CG48 1-76; P0CG48 1-76; …); experiment: as above
T4 construct: ubiquitin, unit 1 of 8, units joined head to tail by peptide bonds (M1-linked); ubiquitin, unit 2 of 8; ubiquitin, unit 3 of 8; ubiquitin, unit 4 of 8; ubiquitin, unit 5 of 8; ubiquitin, unit 6 of 8; ubiquitin, unit 7 of 8; ubiquitin, unit 8 of 8; also called linear octa-ubiquitin; polyubiquitin chain; source: E. coli BL21 (DE3), purified
T4 sequence (P0CG48 1-608, one chain of several): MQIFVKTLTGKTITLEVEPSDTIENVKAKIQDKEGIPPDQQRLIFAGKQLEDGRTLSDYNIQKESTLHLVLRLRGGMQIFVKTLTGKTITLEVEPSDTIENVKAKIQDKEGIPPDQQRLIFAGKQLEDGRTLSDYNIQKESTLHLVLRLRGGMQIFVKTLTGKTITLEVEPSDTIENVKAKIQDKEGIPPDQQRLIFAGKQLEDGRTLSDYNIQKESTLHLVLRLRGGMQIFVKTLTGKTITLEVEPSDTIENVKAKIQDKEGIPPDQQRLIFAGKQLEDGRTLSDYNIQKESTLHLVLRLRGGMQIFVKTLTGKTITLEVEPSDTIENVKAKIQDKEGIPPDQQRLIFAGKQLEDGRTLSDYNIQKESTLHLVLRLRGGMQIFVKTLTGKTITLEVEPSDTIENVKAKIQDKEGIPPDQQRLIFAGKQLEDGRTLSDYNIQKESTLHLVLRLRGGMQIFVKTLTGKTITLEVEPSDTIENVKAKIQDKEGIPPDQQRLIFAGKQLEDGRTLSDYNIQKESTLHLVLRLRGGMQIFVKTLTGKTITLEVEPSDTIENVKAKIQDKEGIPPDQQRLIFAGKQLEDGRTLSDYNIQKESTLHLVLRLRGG

binding result [1]: binds
binding result [2]: binds
binding result [3]: binds
B1: HOIP (residues 854–1072) (domain or fragment, UniProt Q96EP0 854-1072, looked up)
chain: EYQAQGLAMYLQENGIDCPKCKFSYALARGGCMHFHCTQCRHQFCSGCYNAFYAKNKCPEPNCRVKKSLHGHHPRDCLFYLRDWTALRLQKLLQDNNVMFNTEPPAGARAVPGGGCRVIEQKEVPNGLRDEACGKETPAGYAGLCQAHYKEYLVSLINAHSLDPATLYEVEELETATERYLHVRPQPLAGEDPPAYQARLLQKLTEEVPLGQSIPRRRK
notes: also called HOIP RING2-LDD; source: E. coli BL21 (DE3), purified (glutathione resin, SEC)

Binder: B2
binding result (HOIP (residues 697–1072)): binds

binding result (M1-8Ub): binds
B3: HOIP (residues 697–852) (domain or fragment, UniProt Q96EP0 697-852, looked up)
chain: QECAVCGWALPHNRMQALTSCECTICPDCFRQHFTIALKEKHITDMVCPACGRPDLTDDTQLLSYFSTLDIQLRESLEPDAYALFHKKLTEGVLMRDPKFLWCAQCSFGFIYEREQLEATCPQCHQTFCVRCKRQWEEQHRGRSCEDFQNWKRMND
notes: The limits are printed for the M1-8Ub experiment; for the STK4 experiment the text says only 'the RING1-IBR region of HOIP'; also called HOIP RING1-IBR; RING1-IBR region; source: E. coli BL21 (DE3), purified (glutathione resin, SEC)
